In the nanobody polyreactivity screen of Harvey et al. (2022):

Test: yeast display, Sf9 membrane polyspecificity reagent, FACS + sequencing; frameworks hold sequencing errors
Method in brief: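 Genes from sorted yeast were amplified by colony PCR, read by MiSeq 2 × 250 sequencing and filtered on CDR length. These cells carried a synthetic nanobody library in Saccharomyces cerevisiae BJ5465 and were sorted by FACS into low and high (top ~1%) gates on anti-HA and streptavidin fluorescence. Polyreactivity is labelled according to the gate of origin.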

Row | Sequence | polyreactivity (PSR sort gate)
1 | QVQLVESGGGLVQAGGSLRLSCAASGRIFGANAMGWYRQAPGKERELVAVITGGGGTYYADSVKGRFTISRDNAKNTVYLQMNRLKPEETAVYYCDWPRYYYTYPSHPMDYWGQGTQVTVSS | low polyreactivity
2 | QVQLVESGGGLVQAGGSLRLICAASGRTFALYAMGWYRQAPGKEREVVASISWRGGSTYYADSVKGRFTISRDTAKNTVYLQMNSLKPEDTAVDYCAADTWSYGPLNYRLEYWGQGTQVTVSS | low polyreactivity
3 | QVQLVESGGGLVQAGGSLRLSCAASGRIFPAYAMGWYRKAPGKETELVAAISWRSGSTYYAHSVKGRFTISRDNAKNTVYLQMNSLKPEDTAVYYCAAEYDWPGYDYWGQGTQVTVSS | high polyreactivity
4 | QVQLVESGGGLVQAGGSLRLSCAATGSIFRYNTMGWYRQAPGKERELVATITRRGGSTYYADSVKGRITISRDNAKNTVYLQMNSLKPVDTAVYYCNDDNFGGPYNYWGQGTQVTVSS | low polyreactivity
5 | QVQLVESGGGLVQAGGSLRLTCAASGYIIDWNTMVCYRHEPGKERELVAAITESSGSTYYADSVKGRFTISRDNAKNTVYLQMNSLKPEDTAVYYCAAELDVFVSICSRFHFEYWGQGTQVTVSS | low polyreactivity
6 | QVQLVESGGGLVQAGGSLRLSCAASGSTFRFYAMGWYRQAPGKERELVAAITWRGGRTYYADSVKGRFTISRDNAKNTVYLQMNRLKPEDTAVYYCAGGRGWQSQIPAKYYYWGQGTQVTVSS | high polyreactivity
7 | QVQIVESGGGLVQAGGSLRLSCAASGITFRRNAMGWYRQAPGKERELVAVITSVGTTYYADSVKGRFTISRDNAKNTVYLQMNSLKPEDTAVYYCAARFYWGQGTQVTVSS | high polyreactivity
8 | QVQLVESGGGLVQAGGSLRLTCAASGSIFKTNAMGWYRQAPGKERELVAAIRASGGSTYYADSVKGRFTISRDNAKNTVYLQMNSLKPEDTAVYYCAARYWFKYYWGQGTQVTVSS | low polyreactivity
9 | EVQLVESGGGLVQTGGSLRLSCAASGYIYSRYRMGWYRQAPGKGREIVAAISGGSSTNYADSVKGRFTISRDNSNNTVYLQMNSLRAEDTAVYYCAAYKIDSDTRVYWGQGTQVTVSS | low polyreactivity
10 | QVQLVESGGGLVQAGGSLRLSCAASGSTFTYYTMGWYRQAPGKERELVAAISRTTGSTYYADSVKGRFTISRDNAKNTVYLQLNSLKPEDTAVDYCAAQSYKILLYFIGTAGDGYWGQGTQVTVSS | low polyreactivity
11 | QVQLVESGGGLVQAGGSLRLSCAASGRTFTYNTMGWYRQAPGKERELVAAISSRGGRTYYADSVKGRFTISRDNAKNTVYLQMHSLKAEDTAVYYCAVYGYYSLSHWDYDYWAQGTQVTVSS | high polyreactivity
12 | QVQLVESGGGLVQAGGSLRLSCAASGFTFYAYVMGWYRQAPGKERELVAAISGSGTSTYYADSVKGRFTISRDNAKNTVYLQMNSLKPEDTAVYYCAADYYPWDLDDDYWGQGTQVTVSS | high polyreactivity
13 | QVQLVESGGGLVQAGGSLRLSCAASGSIFRGNAMGCYRQAPWKARELVAGINRAGSTKYADSVKGRFTISRDNAKNTVYVQMISLKQEDTEVYYCAAVRYERGLWSDYWGQGTQVTVSS | high polyreactivity
14 | QVQLVESGGGLVQAGGSLRLSCAASGATFERNAMGWYRQAPGKERELVAAITGSGGRTYYADSVKGRFTISRDNAKNTVYLQMNSLKPEDTAVYYCAKDTYYPSSRYNRYYYWGQGTQVTVSS | high polyreactivity
15 | QVQLVESGGGLVQAGGTLRLSCAASGRIISYNPMGWYRAAAGKEMELVAPINWGGGSTYYADSVKGRFTISRDNAKNTVYLQMNSLKPEDTAVYYCNADSNWYYQWNYYGLYDYWGQGTQVTVSS | low polyreactivity
16 | QVQLVESGGGLDQAGGSLRLSCAASGRIFVIIAMGWYRQAPGKERELVAAISWTGDTTYYADSVKGRFTISRDNAKNTVYLQMNSLKPEDTAVYYCAAEGYYIQSRTYSSDRYDYWGQGTQVTVSS | low polyreactivity
17 | QVQLVESGGGLVQAGGSLRLSCAASGLIFTWNAMGWYRQAPGKEREFVAAISTGGSTSYADSVKGRFTISRDNAKNTVYLQMNRLKPEDTAVYYCARDSSIWSHGSWYDYWGQGTQVTVSS | low polyreactivity
18 | QVQLVESGGGLVQAGGSLRLSCAASGRTFRANAMGWYRQAPGKERELFAAISYSGGRTRYADSVKGRFTISRDNAKNTVYLQMNSLKPEDTAVYYCNRVIPTQSLRDAPGLHQVGYWGQGTQVTVSS | high polyreactivity
19 | QVQLVESGGGLVQAGGSLRLSCAASGGTFRNYAMGWYRQAPGKERELVAAITTGTITNYADSVKGRFTISRDNAKNTVYLQLNSLKPEDTAVYYCNAGAFYSDPYVYWGQGNQVTVSS | low polyreactivity
20 | QVQLVESGGGLVQAGGSLRLSCAASGRIFYKYAMGWYRQAPGKERELVAAISTGGTRTYYADSVKGRFTISRDNAKNTVYLQMNSLKPEDTAVYYCAARGGDKTYYYWGQGTQVTVSS | high polyreactivity
21 | QVQLVESGAGLVQAGGSLRLSCAAYGRIFGIYALGWYRQAPGKEREFVAAISDRSGSRTYYADSVKGRFTISRDNAKNTVYLQINSLKPEDTAVYYCAAGILRWKDRWFEYWGQGTQVTVSS | high polyreactivity
22 | QVQLVESGVRLVQAGGSLRLSCASSAITFGKNAMGWYRQAPGTESELVAAITRDGGTNYADSVKGRFTISRDNAMNTVYLHMNILKPEDTAVYYCAKRAYIYYGRYDYWGQGTQVTVSS | low polyreactivity

Row | Sequence | polyreactivity (PSR sort gate)
23 | QVQLVESGGGLVQAGGSLRLSCAASGRIFWWYAMGWYRQAPGKERELVAVIDDSGGITYYADSVKGRFTISRDNAKHTVYLQMNSLKPEDTAVYYCARNVNAQKVLGGFDSWGQGTQVTVSS | low polyreactivity
24 | QVQLVESWGGLVQAGGSLRLSCAASGLIIYTYAMGWYRQAPGKERELVADINRSDGSTYYADSVKGRFTISRDNAKNTVYLQMNSLKPEDTAVYYCAVVGPYYSRFGGRYYYWGQGTQVTVSS | low polyreactivity
25 | QVQLVESGGGLVQEGGSLRLSCAASGFIFVTNAMGWYRQAPGKERELVAAITIGDSTYYADSVKGRFTISRDNAKNTVYLQMNSLKPEDTAVYYCAAEVGFGPGFSTIAYTFDYWGQGTQVTVSS | low polyreactivity
26 | QVQLVESGGGLVQAGGSLRLSCAASGSIFNLYAMGWYRQAPGKERELVAGIRWSGGRTYYADSVKGRFTISRDNAKNTVYLQMNSLKPEDTAVYYCNAVGYLSWWNDYDYWGQGTQVTVSS | high polyreactivity
27 | QVQLVESGGGLVQAGGSLRLSCAASGFIIGSYTMGWNRQAPRKERELVASITKRGGSTYYADSVKGRFTISRDNAKNTVYLQMNSLKPEDTEVYYCAATYLFSHRSRYDYWGQGTQVTVSS | high polyreactivity
28 | QVQLVESGGGLVQAGGSLRLSCAASGRTFFLYALGWYRQATGKERELFARISTSGGGTYYADSVKGRFTISRDHAKNTVYLQMISLKPEDTAVYYCAARTDRGQRRAGGYDFWGQGTQVTVSS | high polyreactivity
29 | QVQLVESGGGLVQAGGSLRLSCAASGSTFARNAMGWFRQAPGKEREFVASIRWGRGTTYYADSVKGRFTNSRDNAKNTLYLQLNSMIPEDSAVYYCATRNSSKRRGYYYWGQGTQVNVSS | high polyreactivity
30 | QVQLVESGGGLVQAGVSLRLSCAASASTFTKYAMGWYRQAPGKERELVAAITASGGNTYYADSVKGRFTISRDNAKNTVYLQMYSLKPEDTAVYYCATGYHRWSSWALDYWGQGTQVTVSS | high polyreactivity
31 | QVQLVESGGGLVQAGGSLRLSCAASGSIFSIYAMGWYRQAPGKERELVAAIDSGTSTTYADSVKGRFTISRDNAKNTVYLQMNSLKPEDTAVYYCAAALYSDVAAVATYVYYWGQGTQVTVSS | low polyreactivity
32 | QVQLVESGGRLVQAGGSLRLSCAASGNIFYYYAMGCYTQAHGKERELVAAISADCGRTYYADSVKGRFTISRDTAKNTVYLQMNSLQPEDTAVYYWNVLGRARTQTRYNYWGQGTQVTVSS | high polyreactivity
33 | QLQLVESGGGLVQAGGSLRLRCAASGNTFYQYAMGWYIQAPGQQREMVAAISSGGRTNYADSVKGRFTISRDNAKNNVYLQMNSLKPEDTAVYYFAADVGYFKSDYWGQGTQVTVSS | low polyreactivity
34 | QLQLVESGGGLVQAGGSLRLSCAASGLTFYVYAMGWYRQAPCKERELVAAISSGGRTYYADSVKGRFTISRDNAKNTVYLQMNSLKPEDTAVYYCAAVRHRNYGYWGQGTQVTVSS | high polyreactivity
35 | QVQLVESGGGLVQAGGSLRLSCADSGRIIDTYAMVWYRQAPGKERELVASISRSDTSTSNADSVKGRFTISRDNAKNTVYLQMNSLKPEDTAVYYCNKDGVPVNNTKRYDYWGQGTQVTVSS | low polyreactivity
36 | QVQLVESGGGLVQAGGSLRLSCAASGSIFYRYAMGWYRQAPGKERELVAGITRGGSTNYADSVKGRFTISRDNAKNTVYLQMNSLKPEDTAVYYCAARSYVYVHYYYWGQGTQVTVSS | high polyreactivity
37 | QVQLVESGGGLVQAGGSLRLSCAASGLTFVTYVMGWYRQAPGKERELVAAISYSGGSTYYADSVKGRFTISRDNAKNTVYLQMISLKPEDTAVYYCAAEWYGYQEDDYWGQGTQVTVSS | low polyreactivity
38 | QVQLVESGGGLVQAGGSLRLSCASSGSIFFGYGMGWYRQAPGKERELVATITTSGGTYYADSVKGRFRISRDNAKNTDYLQMNSLKPEDTAVYYCAATAAALDGNTIMYYWGQGTQVTVSS | low polyreactivity
39 | QVQLVESGGGLVQAGGSLRLSCAASGSTLAVYPMGWYRQAPGKERELVAVIDRGGSTYYADSVKGRFTISRDNAKNTVYLQMNSLKPEDTAVFNCNARRVKGYGYWGHGTQVTVSS | high polyreactivity
40 | QVQLVESGGGLVQAGGSLRLICAASGITFDDYDMGWYRQAPGKEREFVSAISFSGSSTYYADSVKGRFTISRDKAKNTVYLQMNSLKPEDTAVYYCNADYVYSGGRYFGKDYWFDYWGQGTQVTVSS | low polyreactivity
41 | QVQLVESGGGLVQAGGSLRLSCAASGRIFDYNVMGWYRQAPGKERELVADINGSGGGTNYADSVKGRFTISRDNAKNTVYLQINTLKPEDTAVYYCNADSYEYHVPYYDYRYDYCGQGTQVTVSS | low polyreactivity
42 | QVQLVESGGGLVQAGGSLRLSCAASGSTFGRSVMGWYRQAPGNVRELVGAISRRGGSTYYADSVKGRFTISRDNAKKTVYIQLHSRKPEDPAVYYSPVDGARSGEPYDSMDYWGQGTHVTVSS | high polyreactivity
43 | QVQLVESGGGLVQAGGSLRLSCAASGSIFGYYAMGWYRQAPGNERELVAAISRSGGSTYYADSVKGRFTISRDNAKNTVYLQMNSLKPEDTAVYYCAADDYPYGNYYWGQGTQVTVSS | high polyreactivity
